In US20250339569A1 (3B PHARMACEUTICALS, published 2025):
Starred links: 1 amine or outer side, 2 acyl side, 3 side chain; linkers in the order of their positions; H or OH if unused. Positions of bridges follow the written chain, without caps; N, C: chain ends. Non-standard residues stand in square brackets, D forms with d. Primed or numbered codes have the meaning given here. *: point of attachment. Ttds = 1,13-diamino-4,7,10-trioxatridecan-succinamic acid spacer, NCCCOCCOCCOCCCNC(=O)CCC(=O)*; APAc″ = 2-(4-(amino)piperidin-1-yl)acetic acid, NC1CCN(CC(=O)*)CC1; DOTA = O=C(O)CN1CCN(CC(=O)O)CCN(CC(=O)*)CCN(CC(=O)O)CC1; Ttds(3) = NCCCOCCOCCOCCCNC(=O)CCC(=O)*; mXylylene = c1cc(C[*:1])cc(C[*:2])c1; tBuAla = CC(C)(C)C[C@H](N)C(=O)O; Pen = CC(C)(S)[C@H](N)C(=O)O; Propanoyl(3-OH) = O=C(CCO)*; dPip = O=C(O)[C@H]1CCCCN1; Nle = CCCC[C@H](N)C(=O)O; 4Amc = not defined here; Bz′ = not defined here; Hexanoyl = CCCCCC(=O)*; PhAc = O=C(Cc1ccccc1)*; AEEA = NCCOCCOCC(=O)O; Aib = CC(C)(N)C(=O)O; Sar = CNCC(=O)O

B1: 3BP-3283 (peptide)
peptide: Ac-VYCE[dPip]DWLTWAC-NH2
modifications: linker 3-12 via mXylylene
SMILES: CC(=O)N[C@H](C(=O)N[C@@H](Cc1ccc(O)cc1)C(=O)N[C@H]1CSCc2cccc(c2)CSC[C@@H](C(N)=O)NC(=O)[C@H](C)NC(=O)[C@H](Cc2c[nH]c3ccccc23)NC(=O)[C@H]([C@@H](C)O)NC(=O)[C@H](CC(C)C)NC(=O)[C@H](Cc2c[nH]c3ccccc23)NC(=O)[C@H](CC(=O)O)NC(=O)[C@H]2CCCCN2C(=O)[C@H](CCC(=O)O)NC1=O)C(C)C
notes: also called Ac-Val-Tyr-[Cys(3MeBn)-Glu-pip-Asp-Trp-Leu-Thr-Trp-Ala-Cys]-NH2
B2: 3BP-3059 (peptide)
peptide: Ac-VYCE[Aib]DWLTWQC-NH2
modifications: linker 3-12 via mXylylene
SMILES: CC(=O)N[C@H](C(=O)N[C@@H](Cc1ccc(O)cc1)C(=O)N[C@H]1CSCc2cccc(c2)CSC[C@@H](C(N)=O)NC(=O)[C@H](CCC(N)=O)NC(=O)[C@H](Cc2c[nH]c3ccccc23)NC(=O)[C@H]([C@@H](C)O)NC(=O)[C@H](CC(C)C)NC(=O)[C@H](Cc2c[nH]c3ccccc23)NC(=O)[C@H](CC(=O)O)NC(=O)C(C)(C)NC(=O)[C@H](CCC(=O)O)NC1=O)C(C)C
notes: also called Ac-Val-Tyr-[Cys(3MeBn)-Glu-Aib-Asp-Trp-Leu-Thr-Trp-Gln-Cys]-NH2
B3: 3BP-3868 (peptide)
peptide: {DOTA-4Amc}-YCE[dP]DWLTWSC-NH2
modifications: linker 2-11 via mXylylene; reading uncertain
notes: also called DOTA-4Amc-Tyr-[Cys(3MeBn)-Glu-pro-Asp-Trp-Leu-Thr-Trp-Ser-Cys]-NH2
B4: 3BP-3065 (peptide)
peptide: Ac-VYCEGDW[tBuAla]TWQC-NH2
modifications: linker 3-12 via mXylylene
SMILES: CC(=O)N[C@H](C(=O)N[C@@H](Cc1ccc(O)cc1)C(=O)N[C@H]1CSCc2cccc(c2)CSC[C@@H](C(N)=O)NC(=O)[C@H](CCC(N)=O)NC(=O)[C@H](Cc2c[nH]c3ccccc23)NC(=O)[C@H]([C@@H](C)O)NC(=O)[C@H](CC(C)(C)C)NC(=O)[C@H](Cc2c[nH]c3ccccc23)NC(=O)[C@H](CC(=O)O)NC(=O)CNC(=O)[C@H](CCC(=O)O)NC1=O)C(C)C
notes: also called Ac-Val-Tyr-[Cys(3MeBn)-Glu-Gly-Asp-Trp-Npg-Thr-Trp-Gln-Cys]-NH2
B5: 3BP-3859 (peptide)
peptide: {DOTA}-YCE[dP]DWLTWSC-NH2
modifications: linker 2-11 via mXylylene
SMILES: CC(C)C[C@@H]1NC(=O)[C@H](Cc2c[nH]c3ccccc23)NC(=O)[C@H](CC(=O)O)NC(=O)[C@H]2CCCN2C(=O)[C@H](CCC(=O)O)NC(=O)[C@@H](NC(=O)[C@H](Cc2ccc(O)cc2)NC(=O)CN2CCN(CC(=O)O)CCN(CC(=O)O)CCN(CC(=O)O)CC2)CSCc2cccc(c2)CSC[C@@H](C(N)=O)NC(=O)[C@H](CO)NC(=O)[C@H](Cc2c[nH]c3ccccc23)NC(=O)[C@H]([C@@H](C)O)NC1=O
notes: also called DOTA-Tyr-[Cys(3MeBn)-Glu-pro-Asp-Trp-Leu-Thr-Trp-Ser-Cys]-NH2
B6: 3BP-3730 (peptide)
peptide: {Propanoyl(3-OH)}-YCE[dP]DWLTWSC-NH2
modifications: linker 2-11 via 3MeBn
notes: also called 3OHPr-Tyr-[Cys(3MeBn)-Glu-pro-Asp-Trp-Leu-Thr-Trp-Ser-Cys]-NH2
B7: 3BP-3107 (peptide)
peptide: Hexanoyl-VYCEGDWLTWQC-NH2
modifications: linker 3-12 via mXylylene
SMILES: CCCCCC(=O)N[C@H](C(=O)N[C@@H](Cc1ccc(O)cc1)C(=O)N[C@H]1CSCc2cccc(c2)CSC[C@@H](C(N)=O)NC(=O)[C@H](CCC(N)=O)NC(=O)[C@H](Cc2c[nH]c3ccccc23)NC(=O)[C@H]([C@@H](C)O)NC(=O)[C@H](CC(C)C)NC(=O)[C@H](Cc2c[nH]c3ccccc23)NC(=O)[C@H](CC(=O)O)NC(=O)CNC(=O)[C@H](CCC(=O)O)NC1=O)C(C)C
B8: 3BP-3870 (peptide)
peptide: {DOTA-Ttds(3)}-[Nle]YCE[dP]DWLTWSC-NH2
modifications: linker 3-12 via mXylylene
notes: also called DOTA-Ttds-Nle-Tyr-[Cys(3MeBn)-Glu-pro-Asp-Trp-Leu-Thr-Trp-Ser-Cys]-NH2
B9: 3BP-3064 (peptide)
peptide: Ac-VYCEGDWLTWQ[Pen]-NH2
modifications: linker 3-12 via mXylylene
SMILES: CC(=O)N[C@H](C(=O)N[C@@H](Cc1ccc(O)cc1)C(=O)N[C@H]1CSCc2cccc(c2)CSC(C)(C)[C@@H](C(N)=O)NC(=O)[C@H](CCC(N)=O)NC(=O)[C@H](Cc2c[nH]c3ccccc23)NC(=O)[C@H]([C@@H](C)O)NC(=O)[C@H](CC(C)C)NC(=O)[C@H](Cc2c[nH]c3ccccc23)NC(=O)[C@H](CC(=O)O)NC(=O)CNC(=O)[C@H](CCC(=O)O)NC1=O)C(C)C
B10: 3BP-3867 (peptide)
peptide: {DOTA-APAc″}-YCE[dP]DWLTWSC-NH2
modifications: linker 2-11 via mXylylene
notes: also called DOTA-APAc-Tyr-[Cys(3MeBn)-Glu-pro-Asp-Trp-Leu-Thr-Trp-Ser-Cys]-NH2
B11: 3BP-3060 (peptide)
peptide: Ac-VYCE[Sar]DWLTWQC-NH2
modifications: linker 3-12 via mXylylene
SMILES: CC(=O)N[C@H](C(=O)N[C@@H](Cc1ccc(O)cc1)C(=O)N[C@H]1CSCc2cccc(c2)CSC[C@@H](C(N)=O)NC(=O)[C@H](CCC(N)=O)NC(=O)[C@H](Cc2c[nH]c3ccccc23)NC(=O)[C@H]([C@@H](C)O)NC(=O)[C@H](CC(C)C)NC(=O)[C@H](Cc2c[nH]c3ccccc23)NC(=O)[C@H](CC(=O)O)NC(=O)CN(C)C(=O)[C@H](CCC(=O)O)NC1=O)C(C)C
notes: also called Ac-Val-Tyr-[Cys(3MeBn)-Glu-Nmg-Asp-Trp-Leu-Thr-Trp-Gln-Cys]-NH2
B12: 3BP-3109 (peptide)
peptide: PhAc-VYCEGDWLTWQC-NH2
modifications: linker 3-12 via mXylylene
SMILES: CC(C)C[C@@H]1NC(=O)[C@H](Cc2c[nH]c3ccccc23)NC(=O)[C@H](CC(=O)O)NC(=O)CNC(=O)[C@H](CCC(=O)O)NC(=O)[C@@H](NC(=O)[C@H](Cc2ccc(O)cc2)NC(=O)[C@@H](NC(=O)Cc2ccccc2)C(C)C)CSCc2cccc(c2)CSC[C@@H](C(N)=O)NC(=O)[C@H](CCC(N)=O)NC(=O)[C@H](Cc2c[nH]c3ccccc23)NC(=O)[C@H]([C@@H](C)O)NC1=O
B13: 3BP-3869 (peptide)
peptide: {DOTA-AEEA}-YCE[dP]DWLTWSC-NH2
modifications: linker 2-11 via mXylylene
SMILES: CC(C)C[C@@H]1NC(=O)[C@H](Cc2c[nH]c3ccccc23)NC(=O)[C@H](CC(=O)O)NC(=O)[C@H]2CCCN2C(=O)[C@H](CCC(=O)O)NC(=O)[C@@H](NC(=O)[C@H](Cc2ccc(O)cc2)NC(=O)COCCOCCNC(=O)CN2CCN(CC(=O)O)CCN(CC(=O)O)CCN(CC(=O)O)CC2)CSCc2cccc(c2)CSC[C@@H](C(N)=O)NC(=O)[C@H](CO)NC(=O)[C@H](Cc2c[nH]c3ccccc23)NC(=O)[C@H]([C@@H](C)O)NC1=O
notes: also called DOTA-O2Oc-Tyr-[Cys(3MeBn)-Glu-pro-Asp-Trp-Leu-Thr-Trp-Ser-Cys]-NH2
B14: 3BP-3858 (peptide)
peptide: {DOTA-APAc″}-CE[dP]DWLTWSC-NH2
modifications: linker 1-10 via mXylylene
notes: also called DOTA-APAc-[Cys(3MeBn)-Glu-pro-Asp-Trp-Leu-Thr-Trp-Ser-Cys]-NH2

biological target: human carbonic anhydrase 9 (CAIX) (human, UniProt Q16790 38-459); test: FACS competition on HT-29 cells against tracer 3BP-2776; pIC50 category A = pIC50 >8.0

pIC50, > 8 pic50:
{DOTA-Ttds}-VYCEGDWLTWQC-NH2 (linker 3-12 via mXylylene) [3BP-2959], B1, B2, B3, B4, B5, B6, B7, B8, B9, B10, B11, B12, B13, {Bz′}-VYCEGDWLTWQC-NH2 (linker 3-12 via mXylylene) [3BP-3108], B14
